From US20220073608A1 (JIANGSU HUAIYU PHARMACEUTICAL, published 2022)

Assays:
[1] = target: T1, human SEMA4D, full length, on CHO-K1 cells (CHO-K1 hSEMA4D) (human, UniProt Q92854 22-862); experiment: FACS, CHO-K1 hSEMA4D cells; Ab 0.534 nM
T1 construct: whole, on cells; also called human SEMA4D recombinant cells
T1 sequence (looked up): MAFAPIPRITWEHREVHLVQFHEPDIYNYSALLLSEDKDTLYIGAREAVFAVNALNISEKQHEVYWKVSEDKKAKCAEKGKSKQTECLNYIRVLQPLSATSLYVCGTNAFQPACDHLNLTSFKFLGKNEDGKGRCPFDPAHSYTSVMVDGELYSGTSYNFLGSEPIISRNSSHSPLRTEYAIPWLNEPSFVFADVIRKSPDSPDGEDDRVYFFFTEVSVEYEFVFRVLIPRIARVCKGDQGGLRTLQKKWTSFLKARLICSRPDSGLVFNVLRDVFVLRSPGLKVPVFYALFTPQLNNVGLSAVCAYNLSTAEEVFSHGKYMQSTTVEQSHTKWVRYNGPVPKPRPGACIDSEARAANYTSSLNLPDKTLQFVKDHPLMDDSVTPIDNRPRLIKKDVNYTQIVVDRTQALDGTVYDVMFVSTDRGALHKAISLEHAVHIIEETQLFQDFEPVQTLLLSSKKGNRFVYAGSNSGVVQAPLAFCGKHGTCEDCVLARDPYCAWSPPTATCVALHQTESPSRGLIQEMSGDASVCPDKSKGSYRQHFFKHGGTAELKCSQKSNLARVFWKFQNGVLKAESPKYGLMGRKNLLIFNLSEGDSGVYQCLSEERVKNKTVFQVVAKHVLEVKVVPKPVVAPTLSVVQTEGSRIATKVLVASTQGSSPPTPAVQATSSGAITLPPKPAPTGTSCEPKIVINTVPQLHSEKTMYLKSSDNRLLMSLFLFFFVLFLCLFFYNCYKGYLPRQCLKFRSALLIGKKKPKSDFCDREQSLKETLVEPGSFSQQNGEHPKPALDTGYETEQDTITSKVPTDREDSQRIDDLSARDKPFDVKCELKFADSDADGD
Experimental: (§1) The medium was aspirated, the cells were washed once with PBS buffer (purchased from Invitrogen), and then treated with cell dissociation fluid (TrypLE™ Express Enzyme, purchased from Life technology), and the cells were collected. After the cells counted, the cells were washed once with PBS phosphate buffer, and diluted to 3×10⁶ cells per milliliter, and added to the 96-well FACS reaction plate as 100 μL per well. 2% (w/w) fetal calf serum was added to PBS phosphate buffer as FACS buffer, with which the cells were washed once by centrifugation at 2000 rpm 4° C. 100 μL of diluted and purified leading antibodies was added to each well and the plate was incubated for 1 hour on ice. […] Cells were washed 2 times by centrifugation with FACS buffer. The cells were suspended with 200 μL of FACS buffer, and FACS (FACS Verse, purchased from BD) was used to detect and analyze the results.

[2] = target: T1, human SEMA4D, full length, on CHO-K1 …; experiment: FACS, CHO-K1 hSEMA4D cells; Ab 13.3 nM
Experimental: as §1

[3] = target: T2, hSEMA4D ECD-His (His-tagged human SEMA4D protein extracellular domain, Met22-Arg734) (human, UniProt Q92854 22-734); experiment: ELISA, coated hSEMA4D ECD-His; Ab 0.267 nM
T2 construct: Expressed in CHO-S cells, purified on Ni column; also called protein immunogen; immunogen A; not shown: His tag of the pCP vector
T2 sequence: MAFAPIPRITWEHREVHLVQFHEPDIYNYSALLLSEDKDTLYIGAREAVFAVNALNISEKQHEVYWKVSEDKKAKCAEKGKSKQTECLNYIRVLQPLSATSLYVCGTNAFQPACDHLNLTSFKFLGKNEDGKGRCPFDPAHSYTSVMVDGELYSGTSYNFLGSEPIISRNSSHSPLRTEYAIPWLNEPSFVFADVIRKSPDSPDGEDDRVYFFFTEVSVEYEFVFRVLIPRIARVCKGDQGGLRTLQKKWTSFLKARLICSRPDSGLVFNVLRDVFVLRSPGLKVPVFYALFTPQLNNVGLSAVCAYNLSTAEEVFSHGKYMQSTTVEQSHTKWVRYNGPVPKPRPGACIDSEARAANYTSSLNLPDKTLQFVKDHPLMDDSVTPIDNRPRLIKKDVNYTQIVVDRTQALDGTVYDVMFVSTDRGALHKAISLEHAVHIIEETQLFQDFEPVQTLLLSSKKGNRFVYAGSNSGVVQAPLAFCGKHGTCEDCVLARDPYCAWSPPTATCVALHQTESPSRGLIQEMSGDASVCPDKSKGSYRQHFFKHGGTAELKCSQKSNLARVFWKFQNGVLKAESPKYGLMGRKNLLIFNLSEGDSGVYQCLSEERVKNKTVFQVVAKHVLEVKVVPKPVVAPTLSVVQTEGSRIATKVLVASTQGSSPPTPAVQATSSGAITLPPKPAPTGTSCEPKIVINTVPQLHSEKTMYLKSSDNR
Experimental: First, hSEMA4D ECD-His was diluted with PBS to a final concentration of 1.0 μg/mL, and then was added to a 96-well ELISA plate, 100 μL per well, sealed with plastic film and incubated overnight at 4° C. On the next day, the plate was washed with a plate washing solution, that is, PBS buffer containing 0.05% (v/v) Tween20, for 4 times, and added with blocking solution, that is, PBS buffer containing 0.05% (v/v) Tween20 and 2% (w/w) BSA, blocked at 37° C. for 1 hour. The blocking solution was poured out and the plate was washed 4 times with the plate washing solution. 100 μL of the purified leading antibodies obtained in Examples 1 and 2 was added to each well. After incubation at 37° C. for 1 hour, the plate was washed 4 times with a plate washing solution. 100 μL of horseradish peroxidase (HRP) labeled secondary antibody (purchased from Sigma) was added at a dilution of 1:10000 to each well, and the plate was incubated at 37° C. for 1 hour, and washed 4 times with a plate washing solution. 100 μL TMB substrate was added to each well, and the plate was incubated at room temperature for 5 minutes, and added with 100 μL stop solution (1.0N HCl) to each well. A microplate reader (SpectraMax M5e, purchased from Molecular Device) was used to read the A450 nm value. […] Wherein, the data in the table was the OD450 nm value.

| Binder | MFI [1] | MFI [2] | OD450 nm [3] |
| --- | --- | --- | --- |
| 32C8F10 (antibody, V domains shown, Mouse monoclonal antibody purified from hybridoma supernatant on protein A) VH: EVQLQQSGAELVRPGASVKLSCTASGFNIKDEYIHWVKQRPEQGLEWIGWIDPANGHTEYASRFQAKATITADTSSNTAYLQLSSLTSEDTAVYYCTTGDYDGFAYWGQGTLVTVST VL: QIVLTQSPAIMSASPGEKVTISCSARSSVSYMYWYQQKPGSSPKPWIYRTSNLASGVPARFSGSGSGTSYSLTISSMEAEDAATYYCQHYHTYPYTFGGGTKLEIK | 2920 | 7830 | 1.28 |
| 31C11G2 (antibody, V domains shown, Mouse monoclonal antibody purified from hybridoma supernatant on protein A) VH: EVQLQQSGAELVRPGASVKLSCTASGFNIKDEYIHWVKQRPEQGLEWIGWIDPANGHTEYASRFQAKATITADTSSNTAYLQLSSLTSEDTAVYYCTTGDYDGFVYWGQGTLVTVST VL: QIVLTQSPAIMSASPGEKVTIFCSARSSVSYMYWYQQKPGSSPKPWIYRTSNLASGVPARFSGSGSGTSYSLTISSMEAEDAATYYCQHYHTYPYTFGGGTKLEIK | 3140 | 6670 | 1.47 |
| 31G10C5 (antibody, V domains shown, Mouse monoclonal antibody purified from hybridoma supernatant on protein A) VH: EVQLQQSGAELVRPGASVKLSCTASGFNIKDDYIHWVKQRPEQGLEWIGWIDPANGHIEYASNFQAKATITADTSSNTAYLQLSSLTSEDTAVYYCTTGDYDGFTYWGQGTLVTVST VL: QIVLTQSPAIMSASPGEKVTISCSARSSVSYMYWYQQKPGSSPKPWIYRTSNLASGVPARFSGSGSGTSYSLTISSMEAEDAATYYCQHYHTYPYTFGGGTKLEIK | 3070 | 6180 | 1.15 |
| 37C4F7 (antibody, V domains shown, Mouse monoclonal antibody purified from hybridoma supernatant on protein A) VH: EFQLQQSGPEVVKPGASVKISCKASGYSFTDYNMNWMKQSKGKSLEWIGVINPNYGTTTYNQNFKGKATLTVDQSSSTAYMQLNSLTSEDSAVYYCARDMYYVYAYYTMDYWGQGTSVTVSS VL: DVVMTQTPLSLPVSLGDQASISCRSSQSLVHSNGHTYLHWYLQRPGQSPTLLIYKVSNRFSGVPDRFSGSGSGTDFTLKISRVEAEDLGVYFCSQGTHVPWTFGGGTKLEIK | 738 | 4290 | 0.41 |
| 38H2E3 (antibody, V domains shown, Mouse monoclonal antibody purified from hybridoma supernatant on protein A) VH: EFQLQQSGPEVVKPGASVKISCKASGYSFTDYNMNWMKQSKGKSLEWIGVISPDYGTTTYNQNFKDKATLTVDQSSSTAYMQLNSLTSEDSAVYYCAKDMYYVYAYYTMDYWGHGTSVTVSS VL: DVVMTQTPLSLPVSLGDQASISCRSSQSLVHSNGHTYLHWYLQRPGQSPTLLIYKVSNRFSGVPDRVSGSGSGTDFTLKISRVEAEDLGVYFCSQGTHVPRTFGGGTKLEIK | 763 | 4630 | 0.531 |
| 37F11F9 (antibody, V domains shown, Mouse monoclonal antibody purified from hybridoma supernatant on protein A) VH: EVQLQQSGPVLVKPGASVKMSCKASGYTFTDYYMNWVKQSHGKSLEWIGLINPYSGGSTFNQKFKAKATLTVDKSSSSAYMDLNSLTSEDSAVYYCARVGDGYYGVTHGMDYWGQGTSVTVSS VL: DIVMTPSQKFMSTTVGDRVSITCKASQNVGTAVAWYQQKPGQSPTILIYSASNRYTGVPDRFTGSGSGTDFTLTISNMKSEDLADYFCQQYYIYPFTFAAGTKLELK | 1120 | 3960 | 0.89 |
| 42B7G2 (antibody, V domains shown, Mouse monoclonal antibody purified from hybridoma supernatant on protein A) VH: QVQLQQSGAELARPGASVKLSCKASGYTFTDYGISWVKQRTGQGLEWIGEIYLRNDNSYYNEKFKGKATLTADKSSNTAYMELRSLTSEDSAVYFCARWGDHGNNYEDAMDYWGQGTSVTVSS VL: DIVLTQSPASLAMSLGKRATISCRASESVSIIGSNLIHWYQQKPGQPPKLLIYHASNLETGVPARFSGSGSRTDFTLTIDPVEEDDVAIYYCLQSRKVPYTFGGGTKLEIK | 2000 | 3950 | 1.4 |
